The labels stand for the following.
T1: CD44 of BHK cells (hamster (endogenous in BHK), UniProt Q60522 23-431)
T1 sequence: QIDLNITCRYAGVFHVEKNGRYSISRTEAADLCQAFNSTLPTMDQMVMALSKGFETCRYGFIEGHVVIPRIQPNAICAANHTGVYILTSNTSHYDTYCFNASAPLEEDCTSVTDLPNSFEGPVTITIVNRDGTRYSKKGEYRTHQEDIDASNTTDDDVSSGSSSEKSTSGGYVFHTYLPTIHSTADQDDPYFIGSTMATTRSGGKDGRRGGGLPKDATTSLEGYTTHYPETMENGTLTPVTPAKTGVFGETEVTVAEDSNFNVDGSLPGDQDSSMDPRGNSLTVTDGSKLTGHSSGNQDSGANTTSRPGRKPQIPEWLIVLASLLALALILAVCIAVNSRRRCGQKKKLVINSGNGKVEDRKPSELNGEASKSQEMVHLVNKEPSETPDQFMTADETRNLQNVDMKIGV

B1: recombinant mouse moesin (natural protein)
chain: MPKTISVRVTTMDAELEFAIQPNTTGKQLFDQVVKTIGLREVWFFGLQYQDTKAFSTWLKLNKKVTAQDVRKESPLLFKFRAKFYPEDVSEELIQDITQRLFFLQVKEGILNDDIYCPPETAVLLASYAVQSKYGDFNKEVHKSGYLAGDKLLPQRVLEQHKLNKDQWEERIQVWHEEHRGMLREDAVLEYLKIAQDLEMYGVNYFSIKNKKGSELWLGVDALGLNIYEQNDRLTPKIGFPWSEIRNISFNDKKFVIKPIDKKAPDFVFYAPRLRINKRILALCMGNHELYMRRRKPDTIEVQQMKAQAREEKHQKQMERALLENEKKKRELAEKEKEKIEREKEELMEKLKQIEEQTKKAQQELEEQTRRALELEQERKRAQSEAEKLAKERQEAEEAKEALLQASRDQKKTQEQLASEMAELTARISQLEMARKKKESEAVEWQQKAQMVQEDLEKTRAELKTAMSTPHVAEPAENEHDEQDENGAEASAELRADAMAKDRSEEERTTEAEKNERVQKHLKALTSELANARDESKKTANDMIHAENMRLGRDKYKTLRQIRQGNTKQRIDEFESM
B2: recombinant mouse radixin (natural protein)
chain: MPKPINVRVTTMDAELEFAIQPNTTGKQLFDQVVKTVGLREVWFFGLQYVDSKGYSTWLKLNKKVTQQDVKKENPLQFKFRAKFFPEDVSEELIQEITQRLFFLQVKEAILNDEIYCPPETAVLLASYAVQAKYGDYNKEIHKPGYLANDRLLPQRVLEQHKLTKEQWEERIQNWHEEHRGMLREDSMMEYLKIAQDLEMYGVNYFEIKNKKGTELWLGVDALGLNIYEHDDKLTPKIGFPWSEIRNISFNDKKFVIKPIDKKAPDFVFYAPRLRINKRILALCMGNHELYMRRRKPDTIEVQQMKAQAREEKHQKQLERAQLENEKKKREIAEKEKERIEREKEELMERLRQIEEQTVKAQKELEEQTRKALELEQERQRAKEEAERLDRERRAAEEAKSAIAKQAADQMKNQEQLAAELAEFTAKIALLEEAKKKKEEEATEWQHKAFAAQEDLEKTKEELKTVMSAPPPPPPPPVIPPTENEHDEQDENSAEASAELSSEGVMNHRSEEERVTETQKNERVKKQLQALSSELAQARDETKKTQNDVLHAENVKAGRDKYKTLRQIRQGNTKQRIDEFEAM
B3: GST fusion protein with the cytoplasmic domain of mouse CD44 (domain or fragment)
chain: NSRRRCGQKKKLVINGGNGTVEDRKPSELNGEASKSQEMVHLVNKEPSETPDQCMTADETRNLQSVDMKIGV
B4: recombinant mouse ezrin (natural protein)
chain: MPKPINVRVTTMDAELEFAIQPNTTGKQLFDQVVKTIGLREVWYFGLQYVDNKGFPTWLKLDKKVSAQEVRKENPVQFKFRAKFYPEDVAEELIQDITQKLFFLQVKDGILSDEIYCPPETAVLLGSYAVQAKFGDYNKEMHKSGYLSSERLIPQRVMDQHKLSRDQWEDRIQVWHAEHRGMLKDSAMLEYLKIAQDLEMYGINYFEIKNKKGTDLWLGVDALGLNIYEKDDKLTPKIGFPWSEIRNISFNDKKFVIKPIDKKAPDFVFYAPRLRINKRILQLCMGNHELYMRRRKPDTIEVQQMKAQAREEKHQKQLERQQLETEKKRRETVEREKEQMLREKEELMLRLQDYEQKTKRAEKELSEQIEKALQLEEERRRAQEEAERLEADRMAALRAKEELERQAQDQIKSQEQLAAELAEYTAKIALLEEARRRKEDEVEEWQHRAKEAQDDLVKTKEELHLVMTAPPPPPPPVYEPVNYHVQEGLQDEGAEPMGYSAELSSEGILDDRNEEKRITEAEKNERVQRQLLTLSNELSQARDENKRTHNDIIHNENMRQGRDKYKTLRQIRQGNTKQRIDEFEAM

In test [1] the target is T1, CD44 of BHK cells. Briefly: co-sedimentation.
Test [2] has as its target B4. Briefly: pull-down.
Test [3] has as its target B1. Put plainly: pull-down.
The target in test [4] is B2. Put plainly: pull-down.

What is called Kd is the constant that tells how readily two partners part at equilibrium.

In the case of B1, the “amount recovered in the insoluble fraction (of about 0.8 ug added)” value in test [1] was about 0.05 µg.
Turning to B2, the “amount recovered in the insoluble fraction (of about 0.8 ug added)” value in test [1] was about 0.05 µg.
As for B3, the binding result in test [2] and in test [4] was “binds” each time. In addition, the Kd in test [3] came out at 9.3 ± 1.6 nM.
B4: the “amount recovered in the insoluble fraction (of about 0.8 ug added)” value in test [1] was about 0.05 µg.

The values above are taken from PMC2121020 (The Journal of Cell Biology, 1996).
